Measured values: the supplement of paper PMC5998384

System: HeLa Kyoto
Assay: melting temperature (median over replicates), in situ; higher = more thermally stable
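Note: HeLa Kyoto cells synchronized by double thymidine or nocodazole block, proteins quantified by TMT10plex mass spectrometry, three independent biological replicates.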

Sequence of MSRB2 (chain, as listed by the source): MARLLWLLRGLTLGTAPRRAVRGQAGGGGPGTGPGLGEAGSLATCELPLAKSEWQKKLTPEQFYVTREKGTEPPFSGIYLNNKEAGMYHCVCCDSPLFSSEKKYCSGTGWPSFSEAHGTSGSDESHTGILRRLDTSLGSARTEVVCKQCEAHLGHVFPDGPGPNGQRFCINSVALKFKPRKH

Substance	melting temperature (cell cycle stage: G1/S) [°C]	melting temperature (cell cycle stage: mitosis) [°C]
MGLELFLDLVSQPSRAVYIFAKKNGIPLELRTVDLVKGQHKSKEFLQINSLGKLPTLKDGDFILTESSAILIYLSCKYQTPDHWYPSDLQARARVHEYLGWHADCIRGTFGIPLWVQVLGPLIGVQVPEEKVERNRTAMDQALQWLEDKFLGDRPFLAGQQVTLADLMALEELMQPVALGYELFEGRPRLAAWRGRVEAFLGAELCQEAHSIILSILEQAAKKTLPTPSPEAYQAMLLRIARIP [GSTT2B]	54.9	55.1
MPFRLLIPLGLLCALLPQHHGAPGPDGSAPDPAHYRERVKAMFYHAYDSYLENAFPFDELRPLTCDGHDTWGSFSLTLIDALDTLLILGNVSEFQRVVEVLQDSVDFDIDVNASVFETNIRVVGGLLSAHLLSKKAGVEVEAGWPCSGPLLRMAEEAARKLLPAFQTPTGMPYGTVNLLHGVNPGETPVTCTAGIGTFIVEFATLSSLTGDPVFEDVARVALMRLWESRSDIGLVGNHIDVLTGKWVAQDAGIGAGVDSYFEYLVKGAILLQDKKLMAMFLEYNKAIRNYTRFDDWYLWVQMYKGTVSMPVFQSLEAYWPGLQSLIGDIDNAMRTFLNYYTVWKQFGGLPEFYNIPQGYTVEKREGYPLRPELIESAMYLYRATGDPTLLELGRDAVESIEKISKVECGFATIKDLRDHKLDNRMESFFLAETVKYLYLLFDPTNFIHNNGSTFDAVITPYGECILGAGGYIFNTEAHPIDPAALHCCQRLKEEQWEVEDLMREFYSLKRSRSKFQKNTVSSGPWEPPARPGTLFSPENHDQARERKPAKQKVPLLSCPSQPFTSKLALLGQVFLDSS [EDEM2]	55.3	–
MAAAAAGLGGGGAGPGPEAGDFLARYRLVSNKLKKRFLRKPNVAEAGEQFGQLGRELRAQECLPYAAWCQLAVARCQQALFHGPGEALALTEAARLFLRQERDARQRLVCPAAYGEPLQAAASALGAAVRLHLELGQPAAAAALCLELAAALRDLGQPAAAAGHFQRAAQLQLPQLPLAALQALGEAASCQLLARDYTGALAVFTRMQRLAREHGSHPVQSLPPPPPPAPQPGPGATPALPAALLPPNSGSAAPSPAALGAFSDVLVRCEVSRVLLLLLLQPPPAKLLPEHAQTLEKYSWEAFDSHGQESSGQLPEELFLLLQSLVMATHEKDTEAIKSLQVEMWPLLTAEQNHLLHLVLQETISPSGQGV [F8A1]	–	50.9
MGSRWSSEEERQPLLGPGLGPGLGASWRSREAAAAALPAAVPGPGRVYGRRWLVLLLFSLLAFVQGLVWNTWGPIQNSARQAYGFSSWDIALLVLWGPIGFLPCFAFMWLLDKRGLRITVLLTSFLMVLGTGLRCIPISDLILKRRLIHGGQMLNGLAGPTVMNAAPFLSTTWFSADERATATAIASMLSYLGGACAFLVGPLVVPAPNGTSPLLAAESSRAHIKDRIEAVLYAEFGVVCLIFSATLAYFPPRPPLPPSVAAASQRLSYRRSVCRLLSNFRFLMIALAYAIPLGVFAGWSGVLDLILTPAHVSQVDAGWIGFWSIVGGCVVGIAMARFADFIRGMLKLILLLLFSGATLSSTWFTLTCLNSITHLPLTTVTLYASCILLGVFLNSSVPIFFELFVETVYPVPEGITCGVVTFLSNMFMGVLLFFLTFYHTELSWFNWCLPGSCLLSLLLILCFRESYDRLYLDVVVSV [DIRC2]	54.8	–
MSRB2	52.4	52.6
MIEAEEQQPCKTDFYSELPKVELHAHLNGSISSHTMKKLIAQKPDLKIHDQMTVIDKGKKRTLEECFQMFQTIHQLTSSPEDILMVTKDVIKEFADDGVKYLELRSTPRRENATGMTKKTYVESILEGIKQSKQENLDIDVRYLIAVDRRGGPLVAKETVKLAEEFFLSTEGTVLGLDLSGDPTVGQAKDFLEPLLEAKKAGLKLALHLSEIPNQKKETQILLDLLPDRIGHGTFLNSGEGGSLDLVDFVRQHRIPLELCLTSNVKSQTVPSYDQHHFGFWYSIAHPSVICTDDKGVFATHLSQEYQLAAETFNLTQSQVWDLSYESINYIFASDSTRSELRKKWNHLKPRVLHI [ADAL]	57.1	57.2
MSKRNQVSYVRPAEPAFLARFKERVGYREGPTVETKRIQPQPPDEDGDHSDKEDEQPQVVVLKKGDLSVEEVMKIKAEIKAAKADEEPTPADGRIIYRKPVKHPSDEKYSGLTASSKKKKPNEDEVNQDSVKKNSQKQIKNSSLLSFDNEDENE [KIAA1143]	–	52
MGKEKTHINIVVIGHVDSGKSTTTGHLIYKCGGIDKRTIEKFEKEAAEMGKGSFKYAWVLDKLKAERERGITIDISLWKFETSKYYVTIIDAPGHRDFIKNMITGTSQADCAVLIVAAGVGEFEAGISKNGQTREHALLAYTLGVKQLIVGVNKMDSTEPPYSQKRYEEIVKEVSTYIKKIGYNPDTVAFVPISGWNGDNMLEPSANMPWFKGWKVTRKDGNASGTTLLEALDCILPPTRPTDKPLRLPLQDVYKIGGIGTVPVGRVETGVLKPGMVVTFAPVNVTTEVKSVEMHHEALSEALPGDNVGFNVKNVSVKDVRRGNVAGDSKNDPPMEAAGFTAQVIILNHPGQISAGYAPVLDCHTAHIACKFAELKEKIDRRSGKKLEDGPKFLKSGDAAIVDMVPGKPMCVESFSDYPPLGRFAVRDMRQTVAVGVIKAVDKKAAGAGKVTKSAQKAQKAK [EEF1A1]	52.4	52.4
MAGAGPTMLLREENGCCSRRQSSSSAGDSDGEREDSAAERARQQLEALLNKTMRIRMTDGRTLVGCFLCTDRDCNVILGSAQEFLKPSDSFSAGEPRVLGLAMVPGHHIVSIEVQRESLTGPPYL [NAA38]	52.1	52.4
MEEKQILCVGLVVLDVISLVDKYPKEDSEIRCLSQRWQRGGNASNSCTVLSLLGAPCAFMGSMAPGHVADFLVADFRRRGVDVSQVAWQSKGDTPSSCCIINNSNGNRTIVLHDTSLPDVSATDFEKVDLTQFKWIHIEGRNASEQVKMLQRIDAHNTRQPPEQKIRVSVEVEKPREELFQLFGYGDVVFVSKDVAKHLGFQSAEEALRGLYGRVRKGAVLVCAWAEEGADALGPDGKLLHSDAFPPPRVVDTLGAGDTFNASVIFSLSQGRSVQEALRFGCQVAGKKCGLQGFDGIV [KHK]	54.2	–
